The values that follow come from patent US20250340608A1 (PROTAGONIST THERAPEUTICS, published 2025).

Read-outs that look alike come from different tables or passages of the source. Bridge positions count the residues as written; N and C are the ends. * marks the point of attachment. Isovaleryl = CC(C)CC(=O)*

Assay in all cases: cell-based or functional assay
Test [1] concerns the target T1, human ferroportin (SLC40A1) fused in frame with GFP, stably expressed in HEK293 cells (human, UniProt Q9NP59 1-571).
T1 sequence (looked up): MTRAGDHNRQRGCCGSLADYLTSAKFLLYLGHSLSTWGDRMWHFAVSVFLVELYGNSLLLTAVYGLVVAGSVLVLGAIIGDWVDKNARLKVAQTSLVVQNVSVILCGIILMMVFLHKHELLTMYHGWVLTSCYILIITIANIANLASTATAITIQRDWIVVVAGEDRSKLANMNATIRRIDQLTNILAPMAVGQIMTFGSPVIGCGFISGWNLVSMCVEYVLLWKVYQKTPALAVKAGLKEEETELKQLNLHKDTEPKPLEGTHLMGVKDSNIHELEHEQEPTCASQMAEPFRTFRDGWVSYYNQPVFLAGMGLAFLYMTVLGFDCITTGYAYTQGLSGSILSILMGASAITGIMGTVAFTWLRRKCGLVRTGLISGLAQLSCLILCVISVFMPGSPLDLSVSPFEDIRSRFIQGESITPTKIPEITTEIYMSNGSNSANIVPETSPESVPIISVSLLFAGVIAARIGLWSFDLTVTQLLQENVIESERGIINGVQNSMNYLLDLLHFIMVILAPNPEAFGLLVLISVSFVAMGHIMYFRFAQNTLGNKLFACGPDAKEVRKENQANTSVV

Test [2] deals with T1, human ferroportin (SLC40A1) fused in …. This is another data set of the same source.
The target of test [3] is T2, human ferroportin (SLC40A1) fused in frame with GFP, stably expressed on HEK293 cells (human, UniProt Q9NP59 1-571).
T2 sequence (looked up): T1 sequence (looked up)

Test [4] addresses T2, human ferroportin (SLC40A1) fused in …. This is another data set of the same source.
In test [5] the target is T1, human ferroportin (SLC40A1) fused in …. The source holds these as a separate data set.
Test [6] has the same target. This is another data set of the same source.
Test [7] has the same target. The source holds these as a separate data set.
Test [8] shares this target. The source holds these as a separate data set.

B1: Compound 353 (peptide)
peptide: Isovaleryl-DTHFPICIFGPRSKGWVC-NH2
modifications: disulfide 7-18 (inferred); not fully specified (residue 14); also: dimer through DIG linker on εN of Lys14 of each monomer
With B1, the “Log dilutions EC50 (nM) (n > 3)” value in test [1] stood at 2.2 nM.

B2: Compound 68 (peptide)
peptide: H-DTHFPICAFGPRSKGWVCM-NH2
modifications: disulfide 7-18 (inferred)
Consider B2, for which the “EC50 (nM) (n > 3)” value in test [2] was more than 10000 nM.

B3: Mini-Hepcidin 1-9 (Hy-DTHFPICIF-NH2) (peptide)
peptide: H-DTHFPICIF-NH2
Regarding B3, in test [3], the “EC50 (nM), ferroportin degradation (loss of ferroportin-GFP fluorescence)” value was found to be 712 nM. Also, in test [4], the “EC50 (nM) (n > 3)” value turned out to be 712 nM.

B4: Compound 326 (peptide)
peptide: Isovaleryl-DTHFPCIKF-NH2
modifications: also: homodimer via disulfide between Cys6 of each monomer
Turning to B4, in test [5], the “% Activity At 1 uM” value came to 100% and the “EC50 (nM) (n = 3)” value was 3 nM. Moreover, in test [6], the “EC50 (nM) (n > 3)” value is 3 nM. The “Log dilutions EC50 (nM) (n > 3)” value in test [7] was found to be 6 nM.

B5: Compound 2 (peptide)
peptide: Isovaleryl-DTHFPICIFGPRSKGWVC-NH2
modifications: disulfide 7-18 (inferred)
Turning to B5, the “In Vitro Activity EC50” value in test [8] was 5 nM. Also, the “Log dilutions EC50 (nM) (n > 3)” value in test [1] amounted to 4.1 nM.

B6: Compound 3 (peptide)
peptide: Isovaleryl-DTHFPCIIFGPRSRGWVCK-NH2
modifications: disulfide 6-18 (inferred)
On to B6, for which the “In Vitro Activity EC50” value in test [8] worked out at 15 nM. In addition, the “Log dilutions EC50 (nM) (n > 3)” value in test [1] was 15 nM.

B7: Compound 345 (peptide)
peptide: Isovaleryl-DTHFPCIKFK-NH2
modifications: also: homodimer via disulfide between Cys6 of each monomer
B7: the “EC50 (nM) (n > 3)” value in test [6] stood at 8 nM. Moreover, in test [7], the “Log dilutions EC50 (nM) (n > 3)” value stood at 8 nM.

B8: RI-Mini Hepcidin (Hy-DPhe-DIle-DCys-DIle-DPro-DPhe-DHis-DThr-DAsp-NH2) (peptide)
peptide: FICIPFHTD
modifications: all residues are D-amino acids (retro inverse: reversed sequence in all D amino acids); C-terminal amide (-NH2)
Regarding B8, in test [3], the “EC50 (nM), ferroportin degradation (loss of ferroportin-GFP fluorescence)” value was more than 10000 nM.
